The values that follow come from paper PMC4431990, “Functional and expression analyses of two kinds of betaine aldehyde dehydrogenases in a glycinebetaine-hyperaccumulating graminaceous halophyte, Leymus chinensis” (SpringerPlus, 2015).

The Km is the concentration of substrate that gives half-maximal velocity. The term Vmax denotes the rate approached at saturating substrate.

Substrate in the series “purified protein”: C[N+](C)(C)CC=O
The series is described as follows: purified protein. Particulars: 50 mM HEPES-KOH pH 8.0, 500 μM NAD+.

Substrate in series [1]: NC(=O)c1ccc[n+]([C@@H]2O[C@H](COP(=O)(O)OP(=O)(O)OC[C@H]3O[C@@H](n4cnc5c(N)ncnc54)[C@H](OP(=O)(O)O)[C@@H]3O)[C@@H](O)[C@H]2O)c1
Description: spectrophotometric aldehyde dehydrogenase assay (NADH formation). The format is biochemical, Leymus chinensis. Particulars: 50 mM HEPES-KOH pH 8.0, 200 μM betaine aldehyde.

Substrate in series [2]: NCCCC=O
The series is described as above. The class given is biochemical, Leymus chinensis. Particulars: 50 mM HEPES-KOH pH 8.0, 500 μM NAD+. The text has this:
(§1) spectrophotometric aldehyde dehydrogenase assay (NADH formation) on LcBADH2

Substrate in series [3]: NC(=O)c1ccc[n+]([C@@H]2O[C@H](COP(=O)(O)OP(=O)(O)OC[C@H]3O[C@@H](n4cnc5c(N)ncnc54)[C@H](O)[C@@H]3O)[C@@H](O)[C@H]2O)c1
Described as above. The format is biochemical, Leymus chinensis. Particulars: 50 mM HEPES-KOH pH 8.0, 200 μM betaine aldehyde.
Excerpt: as §1

Substrate in series [4]: C[N+](C)(C)CCCC=O
The series is described as above. Particulars: 50 mM HEPES-KOH pH 8.0, 500 μM NAD+. The class given is biochemical, Leymus chinensis.
Excerpt: as §1

Substrate in series [5]: NCCC=O
Described as above. The format is biochemical, Leymus chinensis. Particulars: 50 mM HEPES-KOH pH 8.0, 500 μM NAD+.
Excerpt: as §1

Substrate in series [6]: C[N+](C)(C)CCC=O
Described as above. The format is biochemical, Leymus chinensis. Particulars: 50 mM HEPES-KOH pH 8.0, 500 μM NAD+.
Excerpt: as §1

Substrate in series [7]: NCCCC=O
The series is described as above. The class given is biochemical, Leymus chinensis. Particulars: 50 mM HEPES-KOH pH 8.0, 500 μM NAD+. The text has this: (§2) spectrophotometric aldehyde dehydrogenase assay (NADH formation) on LcBADH1
This is another data set of the same source.

Substrate in series [8]: NC(=O)c1ccc[n+]([C@@H]2O[C@H](COP(=O)(O)OP(=O)(O)OC[C@H]3O[C@@H](n4cnc5c(N)ncnc54)[C@H](O)[C@@H]3O)[C@@H](O)[C@H]2O)c1
Described as above. The format is biochemical, Leymus chinensis. Particulars: 50 mM HEPES-KOH pH 8.0, 5 mM betaine aldehyde.
Excerpt: as §2

Substrate in series [9]: C[N+](C)(C)CCCC=O
Described as above. The class given is biochemical, Leymus chinensis. Particulars: 50 mM HEPES-KOH pH 8.0, 500 μM NAD+.
Excerpt: as §2
This is another data set of the same source.

Substrate in series [10]: NCCC=O
Described as above. The format is biochemical, Leymus chinensis. Particulars: 50 mM HEPES-KOH pH 8.0, 500 μM NAD+.
Excerpt: as §2
The source holds these as a separate data set.

Substrate in series [11]: C[N+](C)(C)CCC=O
The description is as above. The format is biochemical, Leymus chinensis. Particulars: 50 mM HEPES-KOH pH 8.0, 500 μM NAD+.
Excerpt: as §2
This is another data set of the same source.

B1: LcBADH2 (Leymus chinensis) (protein)
chain: MASPAIPQRQLFIDGEWRAPALGRRLPVINPTTEASIGEIPSGTSEDVDAAVAAARAALKRNRGRDWSRAPGAVRAKYLRAIAAKMIERKADLARLEALDCGKPLDEAAWDMDDVAGCFEFFAGHAEALDKRQNAAVSLPENFKCHLKKEPIGVVSLITPWNYPLLMATWKVAPALAAGCTAVLKPSELASVTCLELADVCKEVGLPPGVLNVVTGLGPEAGAPLSSHPDVDKVAFTGSYATGQKIMVAAAPTVKAVTLELGGKSPIVVFDDVDIDKAVEWTLFGCFWTNGQICSATSRLLIHKNIAKEFVDRMVAWSKNIKVSDPLEEGCRLGPVVSEGQYEKIKKFISNAKSEGATILTGGVRPKHMEKGFFIEPTIITDINTSMEIWREEVFGPVLCVKEFSTEEEAIELANDTHYGLAGAVISGDRERCQRLAEEIDAGCIWVNCSQPCFCQAPWGGNKRSGFGRELGEGGIDNYLSIKQVTEYTSDAPWGWYKAPAN
notes: approx 54 kDa
Turning to B1, the Km in “purified protein” turned out to be 109 ± 10.0 µM; in [1], 3680 ± 725 µM; in series [2], 1.96 ± 0.30 µM; in [3], 7.66 ± 0.60 µM; in series [4], 22.1 ± 1.50 µM; in series [5] it was 4.53 ± 0.81 µM. Also, in series [6], the Michaelis-Menten constant (Km) turned out to be 91.4 ± 9.60 µM. Further, the maximal velocity (Vmax) amounted to 1.59 µmol/min/mg in the series “purified protein”; 1.29 µmol/min/mg in series [2]; 1.36 µmol/min/mg in [3]; 1.33 µmol/min/mg in series [4]; 2.16 µmol/min/mg in series [5]; 1.01 µmol/min/mg in series [6].

B2: LcBADH1 (Leymus chinensis) (protein)
chain: MAAPPAIPRRGLFIGGGWREPTLGRRIPVINPATEDTIGDIPAATVEDVELAVAAARSAFLLDGGSRWSRASGATRAKYLNAIAAKIKEKISYLALLETVDSGKPKDEAVADMDDVAACFEYYAGLAEALDGKQHAPISLPMEEFKTYVLKEPIGVVGLITPWNYPLLMATWKVAPALAAGCTAVLKPSELASLTCLELGAICEEIGLPSGVLNIITGLGADAGAPIASHPHVDKIAFTGSTATSKTIMTAAAQMVKPVSLELGGKSPLVIFDDVADIDKAVEWAMFGCFFNGGQVCSATSRLLLREKIAERFLDRLVEWAKNIKISDPLEEGCRLGSVVSKGQYEKIKKFISTARSEGATILHGGDRPKHLGKGFFIEPTIITDVSTSMQIWREEVFGPVICVKVFKTESEAIELANDTHYGLAGGVISDDLERCERIAKVIHSGIVWINCSQPTLVQAPWGGNKQSGFGRELGEWGLENYLSVKQVTRYCKDELYGWYQRPSKL
notes: approx 54 kDa
With B2, the Km is 27300 ± 7000 µM in “purified protein”; 48.1 ± 12.6 µM in series [7]; 15.6 ± 5.70 µM in series [8]; 56.5 ± 17.0 µM in series [9]; 27.4 ± 6.30 µM in series [10]; 762 ± 175 µM in series [11].
